{"source": "patent US20030180746", "about": "“Polymorphism detection and separation” (published 2003)", "key": {"[1]": {"target": "T1, RecA (Escherichia coli, UniProt P0A7G6 P0A7G6:2-353)", "T1 sequence (P0A7G6 2-353, one chain of several)": "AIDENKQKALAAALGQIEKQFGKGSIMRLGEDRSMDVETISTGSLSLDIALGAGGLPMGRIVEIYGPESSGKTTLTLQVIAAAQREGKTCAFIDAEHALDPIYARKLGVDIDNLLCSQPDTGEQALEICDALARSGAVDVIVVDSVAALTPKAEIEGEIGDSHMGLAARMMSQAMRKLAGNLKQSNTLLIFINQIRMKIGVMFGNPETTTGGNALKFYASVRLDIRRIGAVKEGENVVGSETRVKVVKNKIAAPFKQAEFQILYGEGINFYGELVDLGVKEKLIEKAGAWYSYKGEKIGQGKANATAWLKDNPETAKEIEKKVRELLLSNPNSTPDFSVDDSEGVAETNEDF", "experiment": "pulldown; Kan plasmid isolated from tet plasmid excess; PNA annealing oligo", "conditions": "label: 3'-BioTEG"}, "[2]": {"target": "T1, RecA", "experiment": "EMSA; Y-arm on OligoT/OligoU; longer oligos more efficient", "experimental": "(§1) We then add double-stranded nucleic acid target, which is generally ³²P-end-labeled using T4 polynucleotide kinase to facilitate detection of the complex, at a concentration of approximately 20 nM and 10 mM magnesium acetate to a final volume of 10 μl. We incubate this reaction for 10 minutes at 37° C. to allow for synapsis between to the incoming oligonucleotide and the target nucleic acid molecule. We then add the second or “annealing” oligonucleotide in 1 μl to a concentration of 640 nM (calculated for the original 10 μl reaction volume) and incubate for 10 minutes at 37° C. to allow the second oligonucleotide to anneal to the target nucleic acid. We then denature the RecA bound to the oligonucleotide:target complex by cooling the reaction to about 4° C. in an ice bath and adding 1 μl of 10% SDS. The samples are then used immediately or stored at −20° C.\nOligonucleotides used in this example. We use the OligoT/OligoU duplex as the target nucleic acid for these experiments. […]"}, "[3]": {"target": "T1, RecA", "experiment": "EMSA; Y-arm on OligoT/OligoU", "experimental": "as §1\nOligonucleotides used in this example. We use the OligoT/OligoU duplex as the target nucleic acid for these experiments. We use incoming DNA oligonucleotides complementary over a range of lengths to the end of the duplex target as follows: OligoV is a 20-mer with the sequence 5′-[…]-3′ (SEQ ID NO: 10); OligoW is a 25-mer with the sequence 5′-[…]-3′ (SEQ ID NO: 11); OligoX is a 30-mer (SEQ ID NO: 8); OligoY is a 35-mer with the sequence 5′-[…]-3′ (SEQ ID NO: 12); OligoZ is a 40-mer with the sequence 5′-[…]-3′ (SEQ ID NO: 13); and Oligo1 is a 46-mer with the sequence 5′-[…]-3′ (SEQ ID NO: 14). We use annealing DNA oligonucleotides complementary to the end of the duplex target (and to the incoming oligonucleotides) over a range of lengths as follows: Oligo2 is a 20-mer with the sequence 5′-[…]-3′ (SEQ ID NO: 15); Oligo4 is a 25-mer with the sequence 5′-[…]-3′ (SEQ ID NO: 16); Oligo5 is a 30-mer with the sequence 5′-[…]-3′ (SEQ ID NO: 9); Oligo6 is a 35-mer with the sequence 5′-[…]-3′ (SEQ ID NO: 17); Oligo7 is a 40-mer with the sequence 5′-[…]-3′ (SEQ ID NO: 18); and Oligo8 is a 46-mer with the sequence 5′-[…]-3′ (SEQ ID NO: 19)."}, "[4]": {"target": "T1, RecA", "experiment": "EMSA; Y-arm on OligoT/OligoU duplex with Oligo5; almost quantitative; ATP-gamma-S, Mg2+, 37 C", "experimental": "as §1\nTo test the formation of Y-arms under our assay conditions, we use a different target duplex DNA composed of two linear 67-mer oligonucleotides with sequence complementary to each other. The sequence of the first target strand, designated “OligoT”, is: 5′-[…]-3′ (SEQ ID NO: 6) and the sequence of the second target strand, designated “OligoU”, is: 3′-[…]-5′ (SEQ ID NO: 7). We use two oligonucleotides complementary to the end of the OligoT/OligoU linear target duplex in these Y-arm experiments. […]"}, "[5]": {"target": "T1, RecA", "experiment": "EMSA; OligoA/OligoB 70-mer duplex target; double D-loop with OligoI or LNA OligoN; ATP-gamma-S, Mg acetate, 37 C", "experimental": "as §1\nOligonucleotides used in this example. We employ the protocol described in Example 1 to form double D-loops between two DNA oligonucleotides and linear, duplex target DNA. The target duplex DNA is composed of two linear 70-mer oligonucleotides with sequence complementary to each other. The sequence of the first target strand, designated “OligoA”, is: 5′-[…]-3′ (SEQ ID NO: 1) and the sequence of the second target strand, designated “OligoB”, is: 3′-[…]-5′ (SEQ ID NO: 2). […]"}, "[6]": {"target": "T1, RecA", "experiment": "EMSA; Hyg- PCR target, LNA annealing oligos", "conditions": "label: 5'-Cy5", "excerpt": "We also form double D-loops using a PCR product produced from a plasmid containing the a functional hygromycin resistance gene (Hyg⁺) or a hygromycin resistance gene containing a point mutation (Hyg⁻; FIG. 15; SEQ ID NO:______]) using primers AUR123f (5′-[…]-3′; SEQ ID NO: 45) and Hyg1560r (5′-[…]-3′; SEQ ID NO: 46). We follow the protocol described in this Example for the formation of double D-loops in the Kan⁻ PCR product using HygUDF/45G as the incoming oligonucleotide (5′-Cy™ 5-[…]-3′; SEQ ID NO: 47) and various annealing oligonucleotides as indicated in Table 2. We analyze the samples prepared by separating on a 2.5% agarose gel at 4° C. as described above."}, "[7]": {"target": "T1, RecA", "experiment": "EMSA; OligoA/OligoB target, opposite strand; ATP-gamma-S, Mg2+, 37 C", "experimental": "as §1\nOligonucleotides used in this example. We use the OligoA/OligoB duplex as the target nucleic acid for these experiments. As the incoming oligonucleotide, we use either OligoC (SEQ ID NO: 3) or the complementary oligonucleotide which targets the opposite strand of the duplex target, designated “OligoD”, which has the sequence 5′-[…]-3′ (SEQ ID NO: 20)."}, "[8]": {"target": "T1, RecA", "experiment": "EMSA; beta-tubulin PCR product; RecA, incoming and LNA annealing oligos all required", "conditions": "label: 5'-biotin"}, "[9]": {"target": "T1, RecA", "experiment": "EMSA; matched Hyg(rep) 8 kb plasmid target with matched PNA or LNA annealing oligo", "conditions": "label: 5'-Cy5", "experimental": "The target in these experiments is one of two nonsupercoiled plasmids of about 8 kb, differing in a single nucleotide. The incoming oligonucleotides are 31-mer deoxyribonucleotides labeled at the 5′ terminus with either Cy5 or Cy3; the annealing oligonucleotides are 15-mer PNA oligonucleotides acetylated at the N terminus. Deproteinization is performed by adding SDS at either 37° C. or 45° C. to aliquots of the reaction mixture and incubating at the indicated temperature for various amounts of time, after which time the aliquots are removed and placed on dry ice.\nTwo gels are run separately, but scanned at the same time to allow a direct comparison. Results are shown in FIGS. 18A and 18B for the 37° C. deproteinization data only."}}, "data": [{"binder": "GAGGCTATTCGGCTATGACTGGGCACAACAG (ssDNA)", "note": "[KAN/LDB/31t]", "values": [{"measurement": "binding result", "setting": "[1]", "value": "binds"}]}, {"binder": "GCAGACTTCTCCTCAGGAGT (ssDNA)", "note": "[OligoV incoming 20-mer]", "values": [{"measurement": "binding result", "setting": "[2]", "value": "binds"}]}, {"binder": "GCAGACTTCTCCTCAGGAGTCAGGTGCACCATGGTGTCTGTTTGAG (ssDNA)", "note": "[Oligo1 incoming 46-mer]", "values": [{"measurement": "binding result", "setting": "[3]", "value": "binds"}]}, {"binder": "GCAGACTTCTCCTCAGGAGTCAGGT (ssDNA)", "note": "[OligoW incoming 25-mer]", "values": [{"measurement": "binding result", "setting": "[3]", "value": "binds"}]}, {"binder": "GCAGACTTCTCCTCAGGAGTCAGGTGCACC (ssDNA)", "note": "[OligoX incoming 30-mer]", "values": [{"measurement": "binding result", "setting": "[4]", "value": "binds"}]}, {"binder": "AGGCTATTCGGCTACGACTGGGCACAACAG (ssDNA)", "note": "[OligoC incoming 30-mer]", "values": [{"measurement": "binding result", "setting": "[5]", "value": "binds"}]}, {"binder": "CGCAGCTATTTACCCGCAGGACCTATCCACGCCCTCCTACATCGA (ssDNA)", "note": "[HygUDF/45G incoming]", "values": [{"measurement": "binding result", "setting": "[6]", "value": "binds"}]}, {"binder": "GCAGACTTCTCCTCAGGAGTCAGGTGCACCATGGT (ssDNA)", "note": "[OligoY incoming 35-mer]", "values": [{"measurement": "binding result", "setting": "[3]", "value": "binds"}]}, {"binder": "CTGTTGTGCCCAGTCCTAGCCGAATAGCCT (ssDNA)", "note": "[OligoD incoming 30-mer]", "values": [{"measurement": "binding result", "setting": "[7]", "value": "binds"}]}, {"binder": "GGCCTGAAGATGTCGGCCACCTTCATCGGCA (ssDNA)", "note": "[betaTUBwt/31D/5'Bio]", "values": [{"measurement": "binding result", "setting": "[8]", "value": "binds"}]}, {"binder": "ATTTACCCGCAGGACCTATCCACGCCCTCCT (ssDNA)", "note": "[HYG(NT)D5Cy5/31C(rep)]", "values": [{"measurement": "binding result", "setting": "[9]", "value": "binds"}]}, {"binder": "GCAGACTTCTCCTCAGGAGTCAGGTGCACCATGGTGTCTG (ssDNA)", "note": "[OligoZ incoming 40-mer]", "values": [{"measurement": "binding result", "setting": "[3]", "value": "binds"}]}]}
